In patent publication US20230192896A1 (BIOVERATIV THERAPEUTICS, published 2023):
Numbering of substitutions follows the chain as printed. Blank lines part the entries; values can stand above or below the binder they belong to.

Tests used:
[1] = target: T1, free FIXa (activated Factor IX) (human, UniProt P00740 47-191; P00740 227-461); assay: yeast display selection and BLI as in Examples 1 and 5
T1 construct: BLI antigen bought from Haematologic Technologies (HCIXA-0050); also called factor IXa

FIXa-SM (FIXa+EGR-CMK) = target: T2, FIXa-SM (FIXa+EGR-CMK) (human, UniProt P00740 47-191; P00740 227-461, EGR-CMK (L-Glu-Gly-Arg chloromethyl ketone) covalently bound to the active site); assay: BLI; class meaning: paragraph 914
T2 construct: BLI antigen bought from Haematologic Technologies (HCIXA-EGR); also called FIXa with substrate mimic

[2] = target: T1, free FIXa (activated Factor IX); assay: BLI; class meaning: paragraph 914

B3: BIIB-9-1283 (antibody, V domains shown)
VH: QVQLVQSGAEVKKPGASVKVSCKASGYTFTSYYMVWVRQAPGQGLEWMGIINPSGGSTSYAQKFQGRVTMTRDTSTSTVYMELSSLRSEDTAVYYCARVPTYRYSYLAFDIWGQGTMVTVSS
VL: DIQMTQSPSSVSASVGDRVTITCRASQGISSWLAWYQQKPGKAPKLLIYAASSLQSGVPSRFSGSGSGTDFTLTISSLQPEDFATYYCQQASSFPPTFGGGTKVEIK
notes: IgG
- binding result (FIXa-SM (FIXa+EGR-CMK)): binds
- binding result [2]: binds

B4: BIIB-9-1272 (antibody, V domains shown)
VH: QVQLVQSGAEVKKPGASVKVSCKASGYTFTSYYMHWVRQAPGQGLEWMGIINPSGGSTSYAQKFQGRVTMTRDTSTSTVYMELSSLRSEDTAVYYCARDTGGYAFDIWGQGTLVTVSS
VL: B3 VL with P96F
notes: IgG
- binding result (FIXa-SM (FIXa+EGR-CMK)): binds
- binding result [2]: binds

B5: BIIB-9-1274 (antibody, V domains shown)
VH: B4 VH
VL: B3 VL with S92N, P96F
notes: IgG
- binding result (FIXa-SM (FIXa+EGR-CMK)): binds
- binding result [2]: binds

B10: BIIB-9-1282 (antibody, V domains shown)
VH: B3 VH
VL: EIVMTQSPATLSVSPGERATLSCRASQSVSSNLAWYQQKPGQAPRLLIYGASTRATGIPARFSGSGSGTEFTLTISSLQSEDFAVYYCQQHNHLPITFGGGTKVEIK
notes: IgG
- binding result (FIXa-SM (FIXa+EGR-CMK)): binds
- binding result [2]: binds

B11: BIIB-9-1278 (antibody, V domains shown)
VH: B3 VH with V99G, T101G, Y102E, R103L, Y104G, S105Y
VL: B10 VL with N92A, H93N, L94F, I96P
notes: IgG
- binding result (FIXa-SM (FIXa+EGR-CMK)): binds
- binding result [2]: binds

B13: BIIB-9-1284 (antibody, V domains shown)
VH: B3 VH
VL: B10 VL with M4L, S30G
notes: IgG
- binding result (FIXa-SM (FIXa+EGR-CMK)): binds
- binding result [2]: binds

B14: BIIB-9-1268 (antibody, V domains shown)
VH: QVQLVQSGAEVKKPGASVKVSCKASGYTFTSYYMHWVRQAPGQGLEWMGIINPSGGSTSYAQKFQGRVTMTRDTSTSTVYMELSSLRSEDTAVYYCARDPPSWYVFDIWGQGTMVTVSS
VL: EIVMTQSPATLSLSPGERATLSCRASQSVSSYLAWYQQKPGQAPRLLIYDASNRATGIPARFSGSGSGTDFTLTISSLEPEDFAVYYCQQATVWPFTFGGGTKVEIK
notes: IgG
- binding result (FIXa-SM (FIXa+EGR-CMK)): binds
- binding result [2]: binds

B15: BIIB-9-1277 (antibody, V domains shown)
VH: QVQLVQSGAEVKKPGASVKVSCKASGYTFTSYYMHWVRQAPGQGLEWMGIINPSGGSTSYAQKFQGRVTMTRDTSTSTVYMELSSLRSEDTAVYYCARGGTGYYYGSGSRDGYHYYYGMDVWGQGTTVTVSS
VL: B14 VL with L13V, F83L, A91S, T92A, V93N, F96P
notes: IgG
- binding result (FIXa-SM (FIXa+EGR-CMK)): binds
- binding result [2]: binds

B17: BIIB-9-1270 (antibody, V domains shown)
VH: B4 VH
VL: B14 VL with M4L, A91S, T92A, V93D, W94F
notes: IgG
- binding result (FIXa-SM (FIXa+EGR-CMK)): binds
- binding result [2]: binds

B19: BIIB-9-1271 (antibody, V domains shown)
VH: B4 VH
VL: B10 VL with E70D, S80P, V85T, H91G, N92F, H93S, L94F, I96F
notes: IgG
- binding result (FIXa-SM (FIXa+EGR-CMK)): binds
- binding result [2]: binds

B20: BIIB-9-3595 (antibody, V domains shown)
VH: EVQLVESGGGLVKPGGSLRLSCAASGFTFSSYSMNWVRQAPGKGLEWVSSISSSSSYIYYADSVKGRFTISRDNAKNSLYLQMNSLRAEDTAVYYCARDLGGYAGYYGMDVWGQGTTVTVSS
VL: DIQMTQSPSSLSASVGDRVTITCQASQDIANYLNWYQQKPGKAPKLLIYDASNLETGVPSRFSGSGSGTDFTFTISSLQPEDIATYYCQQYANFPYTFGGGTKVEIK
- binding result [1]: binds

B21: BIIB-9-3754 (antibody, V domains shown)
VH: B20 VH with S30G, S33D, S54G, S55E, D62E, L100V, Y106F
VL: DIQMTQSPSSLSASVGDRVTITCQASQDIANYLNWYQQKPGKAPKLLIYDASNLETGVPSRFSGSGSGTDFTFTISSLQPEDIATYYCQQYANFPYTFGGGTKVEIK
- binding result [1]: binds

B22: BIIB-9-3650 (antibody, V domains shown)
VH: B20 VH with K13Q, S30G, S33E, S50A, S53A, Y57T, L100V
VL: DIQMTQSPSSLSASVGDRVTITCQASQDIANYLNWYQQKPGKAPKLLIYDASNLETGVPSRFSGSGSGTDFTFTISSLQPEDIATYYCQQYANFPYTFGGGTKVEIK
- binding result [1]: binds

B24: BIIB-9-3604 (antibody, V domains shown)
VH: B20 VH with S33D, N35V, S54G, S55D, L100V
VL: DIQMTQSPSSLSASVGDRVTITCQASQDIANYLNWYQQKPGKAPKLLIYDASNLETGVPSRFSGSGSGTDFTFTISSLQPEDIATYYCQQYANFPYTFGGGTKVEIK
- binding result [1]: binds

B27: BIIB-9-3601 (antibody, V domains shown)
VH: B20 VH with Y32F, S54A, S55G, L100V
VL: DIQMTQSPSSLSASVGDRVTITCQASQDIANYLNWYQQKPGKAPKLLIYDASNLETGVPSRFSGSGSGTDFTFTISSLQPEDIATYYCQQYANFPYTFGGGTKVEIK
- binding result [1]: binds

B28: BIIB-9-3756 (antibody, V domains shown)
VH: B20 VH with S30G, S33D, S54G, S55E, D62E, A97V, L100V
VL: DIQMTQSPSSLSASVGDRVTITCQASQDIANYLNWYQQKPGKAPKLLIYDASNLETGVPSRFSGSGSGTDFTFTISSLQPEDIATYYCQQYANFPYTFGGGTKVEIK
- binding result [1]: binds

B29: BIIB-9-3617 (antibody, V domains shown)
VH: B20 VH with N35T, S55G, S56T, L100V
VL: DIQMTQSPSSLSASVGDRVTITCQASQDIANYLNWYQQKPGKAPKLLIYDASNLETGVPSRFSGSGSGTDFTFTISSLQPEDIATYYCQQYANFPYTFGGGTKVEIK
- binding result [1]: binds

B32: BIIB-9-3621 (antibody, V domains shown)
VH: B20 VH with S30G, N35A, S50G, S56G, L100V
VL: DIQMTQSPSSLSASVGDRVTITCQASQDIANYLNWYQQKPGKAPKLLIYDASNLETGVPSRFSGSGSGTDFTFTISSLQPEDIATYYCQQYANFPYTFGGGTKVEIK
- binding result [1]: binds

B33: BIIB-9-3649 (antibody, V domains shown)
VH: B20 VH with S33G, N35A, S50G, L100V
VL: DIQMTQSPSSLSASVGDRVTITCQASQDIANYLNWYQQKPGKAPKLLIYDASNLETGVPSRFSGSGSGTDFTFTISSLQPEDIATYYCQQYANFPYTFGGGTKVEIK
- binding result [1]: binds

Now from value to binder:

- binding result [1]: binds
B1: BIIB-9-3675 (antibody, V domains shown)
VH: QLQLQESGPGLVKPSETLSLTCTVSGGSISSTSYYWVWIRQPPGKGLEWIGSITASGSTYYNPSLKSRVTISVDTSKNQFSLKLSSVTAADTAVYYCARDKYQDYSFDIWGQGTMVTVSS
VL: B3 VL with S30D, S92N, S93F, F94L, P96F
notes: daughter of BIIB-9-578

- binding result (FIXa-SM (FIXa+EGR-CMK)): binds
- binding result [2]: binds
B2: BIIB-9-1281 (antibody, V domains shown)
VH: QVQLQQWGAGLLKPSETLSLTCAVYGGSFSGYYWSWIRQPPGKGLEWIGEIDHSGSTNYNPSLKSRVTISVDTSKNQFSLKLSSVTAADTAVYYCARTTRSKYYGMDVWGQGTMVTVSS
VL: B3 VL with S10T, V11L, G28S, A50K, Q55E, S92I, F94L, P96I
notes: IgG

- binding result [1]: binds
B6: BIIB-9-3681 (antibody, V domains shown)
VH: B1 VH with T32G, V37N, T54Q, A55P
VL: B3 VL with S30D, S92N, S93F, F94L, P96F
notes: daughter of BIIB-9-578

- binding result (FIXa-SM (FIXa+EGR-CMK)): binds
- binding result [2]: binds
B7: BIIB-9-1279 (antibody, V domains shown)
VH: QVQLVQSGAEVKKPGASVKVSCKASGYTFTSYYMHWVRQAPGQGLEWMGIINPSGGSTSYAQKFQGRVTMTRDTSTSTVYMELSSLRSEDTAVYYCARGPTDSSGYLDMDVWGKGTTVTVSS
VL: B3 VL
notes: IgG

- binding result (FIXa-SM (FIXa+EGR-CMK)): binds
- binding result [2]: binds
B8: BIIB-9-1267 (antibody, V domains shown)
VH: QVQLVQSGAEVKKPGASVKVSCKASGYTFTSYYMHWVRQAPGQGLEWMGIINPSGGSTSYAQKFQGRVTMTRDTSTSTVYMELSSLRSEDTAVYYCARDHGWAIYGMDVWGQGTTVTVSS
VL: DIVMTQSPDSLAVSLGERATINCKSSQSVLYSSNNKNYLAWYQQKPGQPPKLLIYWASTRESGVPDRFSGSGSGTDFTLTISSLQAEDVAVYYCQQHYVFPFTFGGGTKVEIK
notes: IgG

- binding result (FIXa-SM (FIXa+EGR-CMK)): binds
- binding result [2]: binds
B9: BIIB-9-1287 (antibody, V domains shown)
VH: QLQLQESGPGLVKPSETLSLTCTVSGGSISSSDYYWGWIRQPPGKGLEWIGSIYYSGSTYYNPSLKSRVTISVDTSKNQFSLKLSSVTAADTAVYYCARSPRHKVRGPNWFDPWGQGTLVTVSS
VL: EIVLTQSPGTLSLSPGERATLSCRASQSVSSSYLAWYQQKPGQAPRLLIYGASSRATGIPDRFSGSGSGTDFTLTISRLEPEDFAVYYCQQYHLHPTFGGGTKVEIK
notes: IgG

- binding result (FIXa-SM (FIXa+EGR-CMK)): binds
- binding result [2]: binds
B12: BIIB-9-1285 (antibody, V domains shown)
VH: B3 VH
VL: B10 VL with H91A, N92S, H93N, L94F, I96P
notes: IgG

- binding result (FIXa-SM (FIXa+EGR-CMK)): binds
- binding result [2]: binds
B16: BIIB-9-1269 (antibody, V domains shown)
VH: B14 VH with P100R, P101G, S102Q, W103Y, V105H, I108L, Q111R, M114L
VL: B3 VL with T20A, P96F
notes: IgG

- binding result (FIXa-SM (FIXa+EGR-CMK)): binds
- binding result [2]: binds
B18: BIIB-9-1273 (antibody, V domains shown)
VH: B4 VH
VL: B14 VL with M4L, S7Y, A91S, T92A, V93N, W94F
notes: IgG

- binding result [1]: binds
B23: BIIB-9-3753 (antibody, V domains shown)
VH: B20 VH with S30G, S33D, S53D, S55A, Y59A, L100V, G101S
VL: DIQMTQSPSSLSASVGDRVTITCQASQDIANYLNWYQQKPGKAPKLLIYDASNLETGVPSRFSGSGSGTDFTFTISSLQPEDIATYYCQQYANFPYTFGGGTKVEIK

- binding result [1]: binds
B25: BIIB-9-3766 (antibody, V domains shown)
VH: B20 VH with S30G, S33D, S54G, S55E, D62E, L100V
VL: DIQMTQSPSSLSASVGDRVTITCEASEDISNYLNWYQQKPGKAPKLLIYDASNLQYGVPSRFSGSGSGTDFTFTISSLQPEDIATYYCSQYANFPYTFGGGTKVEIK

- binding result [1]: binds
B26: BIIB-9-3647 (antibody, V domains shown)
VH: B20 VH with S33G, N35V, S54A, L100V
VL: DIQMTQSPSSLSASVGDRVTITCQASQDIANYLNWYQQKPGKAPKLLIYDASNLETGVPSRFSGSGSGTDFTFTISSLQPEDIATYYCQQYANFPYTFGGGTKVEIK

- binding result [1]: binds
B30: BIIB-9-3618 (antibody, V domains shown)
VH: B20 VH with L18M, S33E, N35V, S50Y, S54G, L100V
VL: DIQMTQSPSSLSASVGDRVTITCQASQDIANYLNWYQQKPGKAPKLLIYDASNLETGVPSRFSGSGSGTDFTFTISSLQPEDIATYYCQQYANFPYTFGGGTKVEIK

- binding result [1]: binds
B31: BIIB-9-3654 (antibody, V domains shown)
VH: B20 VH with S30E, S50G, S54A, L100V
VL: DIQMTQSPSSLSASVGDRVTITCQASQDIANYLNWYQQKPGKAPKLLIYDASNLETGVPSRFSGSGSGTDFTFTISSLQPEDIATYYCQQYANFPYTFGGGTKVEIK
